According to patent publication US20220332785A1:

Target: p53^R175H LP … (SEQ ID NO: 111) in the context of HLA-DRB1*13:01 (human)
Assay: cell-based or functional assay

functional avidity: interferon-gamma secretion (ELISA), lowest peptide concentration recognized [ng/mL]	Binder
10	4285-PBL-TCR3 (TCR) TCR alpha: KDQVFQPSTVASSEGAVVEIFCNHSVSNAYNFFWYLHFPGCAPRLLVKGSKPSQQGRYNMTYERFSSSLLILQVREADAAVYYCAVEDRRRTALIFGKGTTLSVSSNIQNPEPAVYQLKDPRSQDSTLCLFTDFDSQINVPKTMESGTFITDKCVLDMKAMDSKSNGAIAWSNQTSFTCQDIFKETNATYPSSDVPCDATLTEKSFETDMNLNFQNLLVIVLRILLLKVAGFNLLMTLRLWSS TCR beta: EPEVTQTPSHQVTQMGQEVILRCVPISNHLYFYWYRQILGQKVEFLVSFYNNEISEKSEIFDDQFSVERPDGSNFTLKIRSTKLEDSAMYFCASSEYQSQSNEQFFGPGTRLTVLEDLRNVTPPKVSLFEPSKAEIANKQKATLVCLARGFFPDHVELSWWVNGKEVHSGVCTDPQAYKESNYSYCLSSRLRVSATFWHNPRNHFRCQVQFHGLSEEDKWPEGSPKPVTQNISAEAWGRADCGITSASYQQGVLSATILYEILLGKATLYAVLVSTLVVMAMVKRKNS
10	4285-PBL-TCR6 (TCR) TCR alpha: QQVMQIPQYQHVQEGEDFTTYCNSSTTLSNIQWYKQRPGGHPVFLIQLVKSGEVKKQKRLTFQFGEAKKNSSLHITATQTTDVGTYFCAGPGGAGSYQLTFGKGTKLSVIPNIQNPEPAVYQLKDPRSQDSTLCLFTDFDSQINVPKTMESGTFITDKCVLDMKAMDSKSNGAIAWSNQTSFTCQDIFKETNATYPSSDVPCDATLTEKSFETDMNLNFQNLLVIVLRILLLKVAGFNLLMTLRLWSS TCR beta: QVTQNPRYLITVTGKKLTVTCSQNMNHEYMSWYRQDPGLGLRQIYYSMNVEVTDKGDVPEGYKVSRKEKRNFPLILESPSPNQTSLYFCASSPFVVIGQINEQYFGPGTRLTVTEDLRNVTPPKVSLFEPSKAEIANKQKATLVCLARGFFPDHVELSWWVNGKEVHSGVCTDPQAYKESNYSYCLSSRLRVSATFWHNPRNHFRCQVQFHGLSEEDKWPEGSPKPVTQNISAEAWGRADCGITSASYQQGVLSATILYEILLGKATLYAVLVSTLVVMAMVKRKNS
10	4285-PBL-TCR1 (TCR) TCR alpha: KTTQPNSMESNEEEPVHLPCNHSTISGTDYIHWYRQLPSQGPEYVIHGLTSNVNNRMASLAIAEDRKSSTLILHRATLRDAAVYYCILRDNNARLMFGDGTQLVVKPNIQNPEPAVYQLKDPRSQDSTLCLFTDFDSQINVPKTMESGTFITDKCVLDMKAMDSKSNGAIAWSNQTSFTCQDIFKETNATYPSSDVPCDATLTEKSFETDMNLNFQNLLVIVLRILLLKVAGFNLLMTLRLWSS TCR beta: QVTQNPRYLITVTGKKLTVTCSQNMNHEYMSWYRQDPGLGLRQIYYSMNVEVTDKGDVPEGYKVSRKEKRNFPLILESPSPNQTSLYFCASGLVGFNQPQHFGDGTRLSILEDLRNVTPPKVSLFEPSKAEIANKQKATLVCLARGFFPDHVELSWWVNGKEVHSGVCTDPQAYKESNYSYCLSSRLRVSATFWHNPRNHFRCQVQFHGLSEEDKWPEGSPKPVTQNISAEAWGRADCGITSASYQQGVLSATILYEILLGKATLYAVLVSTLVVMAMVKRKNS
10	4285-PBL-TCR7 (TCR) TCR alpha: ELKVEQNPLFLSMQEGKNYTIYCNYSTTSDRLYWYRQDPGKSLESLFVLLSNGAVKQEGRLMASLDTKARLSTLHITAAVHDLSATYFCAVAHMDSNYQLIWGAGTKLIIKPNIQNPEPAVYQLKDPRSQDSTLCLFTDFDSQINVPKTMESGTFITDKCVLDMKAMDSKSNGAIAWSNQTSFTCQDIFKETNATYPSSDVPCDATLTEKSFETDMNLNFQNLLVIVLRILLLKVAGFNLLMTLRLWSS TCR beta: GVTQTPKFRVLKTGQSMTLLCAQDMNHEYMYWYRQDPGMGLRLIHYSVGEGTTAKGEVPDGYNVSRLKKQNFLLGLESAAPSQTSVYFCASSYAGLAAPREQFFGPGTRLTVLEDLRNVTPPKVSLFEPSKAEIANKQKATLVCLARGFFPDHVELSWWVNGKEVHSGVCTDPQAYKESNYSYCLSSRLRVSATFWHNPRNHFRCQVQFHGLSEEDKWPEGSPKPVTQNISAEAWGRADCGITSASYQQGVLSATILYEILLGKATLYAVLVSTLVVMAMVKRKNS
10	4285-PBL-TCR2 (TCR) TCR alpha: KTTQPPSMDCAEGRAANLPCNHSTISGNEYVYWYRQIHSQGPQYIIHGLKNNETNEMASLIITEDRKSSTLILPHATLRDTAVYYCIVRARANAGGTSYGKLTFGQGTILTVHPNIQNPEPAVYQLKDPRSQDSTLCLFTDFDSQINVPKTMESGTFITDKCVLDMKAMDSKSNGAIAWSNQTSFTCQDIFKETNATYPSSDVPCDATLTEKSFETDMNLNFQNLLVIVLRILLLKVAGFNLLMTLRLWSS TCR beta: GITQSPKYLFRKEGQNVTLSCEQNLNHDAMYWYRQDPGQGLRLIYYSQIVNDFQKGDIAEGYSVSREKKESFPLTVTSAQKNPTAFYLCASLQFNEQFFGPGTRLTVLEDLRNVTPPKVSLFEPSKAEIANKQKATLVCLARGFFPDHVELSWWVNGKEVHSGVCTDPQAYKESNYSYCLSSRLRVSATFWHNPRNHFRCQVQFHGLSEEDKWPEGSPKPVTQNISAEAWGRADCGITSASYQQGVLSATILYEILLGKATLYAVLVSTLVVMAMVKRKNS
10	4285-PBL-TCR5 (TCR) TCR alpha: KTTQPPSMDCAEGRAANLPCNHSTISGNEYVYWYRQIHSQGPQYIIHGLKNNETNEMASLIITEDRKSSTLILPHATLRDTAVYYCIVRGSPGAGGTSYGKLTFGQGTILTVHPNIQNPEPAVYQLKDPRSQDSTLCLFTDFDSQINVPKTMESGTFITDKCVLDMKAMDSKSNGAIAWSNQTSFTCQDIFKETNATYPSSDVPCDATLTEKSFETDMNLNFQNLLVIVLRILLLKVAGFNLLMTLRLWSS TCR beta: GITQSPKYLFRKEGQNVTLSCEQNLNHDAMYWYRQDPGQGLRLIYYSQIVNDFQKGDIAEGYSVSREKKESFPLTVTSAQKNPTAFYLCASSIRTEAFFGQGTRLTVVEDLRNVTPPKVSLFEPSKAEIANKQKATLVCLARGFFPDHVELSWWVNGKEVHSGVCTDPQAYKESNYSYCLSSRLRVSATFWHNPRNHFRCQVQFHGLSEEDKWPEGSPKPVTQNISAEAWGRADCGITSASYQQGVLSATILYEILLGKATLYAVLVSTLVVMAMVKRKNS
10	4285-PBL-TCR9 (TCR) TCR alpha: KTTQPPSMDCAEGRAANLPCNHSTISGNEYVYWYRQIHSQGPQYIIHGLKNNETNEMASLIITEDRKSSTLILPHATLRDTAVYYCIVRARANAGGTSYGKLTFGQGTILTVHPNIQNPEPAVYQLKDPRSQDSTLCLFTDFDSQINVPKTMESGTFITDKCVLDMKAMDSKSNGAIAWSNQTSFTCQDIFKETNATYPSSDVPCDATLTEKSFETDMNLNFQNLLVIVLRILLLKVAGFNLLMTLRLWSS TCR beta: GITQSPKYLFRKEGQNVTLSCEQNLNHDAMYWYRQDPGQGLRLIYYSQIVNDFQKGDIAEGYSVSREKKESFPLTVTSAQKNPTAFYLCATRTGNEAFFGQGTRLTVVEDLRNVTPPKVSLFEPSKAEIANKQKATLVCLARGFFPDHVELSWWVNGKEVHSGVCTDPQAYKESNYSYCLSSRLRVSATFWHNPRNHFRCQVQFHGLSEEDKWPEGSPKPVTQNISAEAWGRADCGITSASYQQGVLSATILYEILLGKATLYAVLVSTLVVMAMVKRKNS
